The text below walks through data of article PMC3869376, “Inflammation produces catecholamine resistance in obesity via activation of PDE3B by the protein kinases IKKε and TBK1” (eLife, 2013).

The assay has as its target T1, HA-PDE3B (human) phosphorylated by co-expressed Flag-TBK1 (human, UniProt Q13370 1-1112, phosphorylated by co-expressed TBK1; serines 22, 299, 318, 381, 463, 467 and 503 found phosphorylated by LC-MS/MS (HA-PDE3B from Cos-1 cells)).
T1 construct: Phosphodiesterase 3B (PDE3B), human cDNA (from Dr Morris Birnbaum); The phosphorylation sites were mapped in Cos-1 cells; also called phosphorylated PDE3B; the wild-type protein; source: HEK293T, transfected together with Flag-TBK1, in lysate; immunoprecipitated for the overlay
As to the kind of experiment: pull-down; GST or GST-14-3-3β on glutathione beads incubated 1.5 hr at 4°C with cleared lysates of HEK293T cells co-expressing HA-PDE3B and Flag-TBK1 or K38A; PD buffer 15 mM Tris pH 7.5, 150 mM NaCl, 0.5% NP-40, 1 mM DTT. Conditions: one partner purified.

T1 sequence (Q13370 whole entry): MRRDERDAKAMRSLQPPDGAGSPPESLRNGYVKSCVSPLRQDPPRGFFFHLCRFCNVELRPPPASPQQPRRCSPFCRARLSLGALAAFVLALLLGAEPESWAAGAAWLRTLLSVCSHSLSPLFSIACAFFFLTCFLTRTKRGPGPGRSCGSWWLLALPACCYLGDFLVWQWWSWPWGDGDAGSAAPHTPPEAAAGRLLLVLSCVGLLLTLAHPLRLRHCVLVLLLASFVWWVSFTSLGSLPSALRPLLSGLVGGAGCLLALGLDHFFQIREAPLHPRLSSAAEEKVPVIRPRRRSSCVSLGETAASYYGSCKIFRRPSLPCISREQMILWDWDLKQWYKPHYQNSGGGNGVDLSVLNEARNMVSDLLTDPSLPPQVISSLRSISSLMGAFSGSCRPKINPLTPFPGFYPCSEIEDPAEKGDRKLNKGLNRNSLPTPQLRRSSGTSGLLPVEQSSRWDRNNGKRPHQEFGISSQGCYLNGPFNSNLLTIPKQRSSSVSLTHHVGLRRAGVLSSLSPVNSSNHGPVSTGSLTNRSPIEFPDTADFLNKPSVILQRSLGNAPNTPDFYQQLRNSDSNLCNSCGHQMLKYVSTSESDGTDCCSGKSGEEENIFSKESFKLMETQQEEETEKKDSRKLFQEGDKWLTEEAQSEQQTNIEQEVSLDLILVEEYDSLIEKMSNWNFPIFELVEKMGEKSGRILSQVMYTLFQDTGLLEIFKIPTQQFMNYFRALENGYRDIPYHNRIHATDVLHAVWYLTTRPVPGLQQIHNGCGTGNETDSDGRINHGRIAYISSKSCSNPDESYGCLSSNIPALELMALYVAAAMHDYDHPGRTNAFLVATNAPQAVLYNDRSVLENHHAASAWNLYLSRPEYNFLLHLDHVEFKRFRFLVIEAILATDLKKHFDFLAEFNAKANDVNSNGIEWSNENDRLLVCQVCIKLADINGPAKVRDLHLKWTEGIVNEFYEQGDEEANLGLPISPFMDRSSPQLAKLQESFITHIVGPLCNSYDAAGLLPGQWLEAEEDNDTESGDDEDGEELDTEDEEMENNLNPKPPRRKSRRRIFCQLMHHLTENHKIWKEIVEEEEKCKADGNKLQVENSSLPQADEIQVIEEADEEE

B1: GST-14-3-3β fusion protein (natural protein, human, UniProt P31946 1-246, looked up)
chain: MTMDKSELVQKAKLAEQAERYDDMAAAMKAVTEQGHELSNEERNLLSVAYKNVVGARRSSWRVISSIEQKTERNEKKQQMGKEYREKIEAELQDICNDVLELLDKYLIPNATQPESKVFYLKMKGDYFRYLSEVASGDNKQTTVSNSQQAYQEAFEISKKEMQPTHPIRLGLALNFSVFYYEILNSPEKACSLAKTAFDEAIAELDTLNEESYKDSTLIMQLLRDNLTLWTSENQGDEGDAGEGEN
modifications: DIG-labelled (DIG-NHS) in the overlay assay only
notes: 14-3-3β, human cDNA (from Dr Ken Inoki) subcloned into pGEX-4T-1; source: eluted with glutathione for the overlay
With B1, the binding result is on record as “binds”.
